Reference: patent publication US20090099029

Each substance was assayed against Bovine, dephosphorylated, Myelin Basic Protein (MBP) (UniProt P02687).
Sequence of Bovine, dephosphorylated, Myelin Basic Protein (MBP) (P02687 whole entry): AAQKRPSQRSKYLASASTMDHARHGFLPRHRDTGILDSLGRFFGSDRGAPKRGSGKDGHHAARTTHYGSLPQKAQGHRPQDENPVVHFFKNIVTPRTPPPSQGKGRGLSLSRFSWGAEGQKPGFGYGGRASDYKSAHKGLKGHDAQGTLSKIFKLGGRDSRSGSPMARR

Sequence of PIM2 (chain, as listed by the source): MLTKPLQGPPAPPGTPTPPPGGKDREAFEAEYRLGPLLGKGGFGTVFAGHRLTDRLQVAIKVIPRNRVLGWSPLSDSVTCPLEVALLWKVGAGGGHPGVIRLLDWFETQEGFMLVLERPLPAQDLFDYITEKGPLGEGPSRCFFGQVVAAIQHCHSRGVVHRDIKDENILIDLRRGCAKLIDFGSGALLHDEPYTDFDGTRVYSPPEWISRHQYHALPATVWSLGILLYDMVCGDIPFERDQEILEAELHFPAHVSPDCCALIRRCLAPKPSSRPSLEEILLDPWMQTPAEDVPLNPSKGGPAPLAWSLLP
Sequence of WEE1 (chain, as listed by the source): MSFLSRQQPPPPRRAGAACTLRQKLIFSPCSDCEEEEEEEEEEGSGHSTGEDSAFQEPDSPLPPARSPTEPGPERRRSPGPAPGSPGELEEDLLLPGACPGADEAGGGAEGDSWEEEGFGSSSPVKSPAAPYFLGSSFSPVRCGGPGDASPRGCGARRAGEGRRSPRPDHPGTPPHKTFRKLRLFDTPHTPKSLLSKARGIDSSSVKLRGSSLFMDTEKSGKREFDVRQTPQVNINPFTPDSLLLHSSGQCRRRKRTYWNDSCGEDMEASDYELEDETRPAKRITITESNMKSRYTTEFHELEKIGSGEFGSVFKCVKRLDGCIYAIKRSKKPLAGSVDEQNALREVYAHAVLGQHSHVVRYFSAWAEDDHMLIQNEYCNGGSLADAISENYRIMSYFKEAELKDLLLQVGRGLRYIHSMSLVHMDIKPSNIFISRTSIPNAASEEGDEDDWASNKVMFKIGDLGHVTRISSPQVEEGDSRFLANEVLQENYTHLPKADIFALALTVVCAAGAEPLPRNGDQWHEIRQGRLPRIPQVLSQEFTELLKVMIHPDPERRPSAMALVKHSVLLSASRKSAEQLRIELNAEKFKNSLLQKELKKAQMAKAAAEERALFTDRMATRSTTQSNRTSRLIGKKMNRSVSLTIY
Sequence of STK24(MST3) (chain, as listed by the source): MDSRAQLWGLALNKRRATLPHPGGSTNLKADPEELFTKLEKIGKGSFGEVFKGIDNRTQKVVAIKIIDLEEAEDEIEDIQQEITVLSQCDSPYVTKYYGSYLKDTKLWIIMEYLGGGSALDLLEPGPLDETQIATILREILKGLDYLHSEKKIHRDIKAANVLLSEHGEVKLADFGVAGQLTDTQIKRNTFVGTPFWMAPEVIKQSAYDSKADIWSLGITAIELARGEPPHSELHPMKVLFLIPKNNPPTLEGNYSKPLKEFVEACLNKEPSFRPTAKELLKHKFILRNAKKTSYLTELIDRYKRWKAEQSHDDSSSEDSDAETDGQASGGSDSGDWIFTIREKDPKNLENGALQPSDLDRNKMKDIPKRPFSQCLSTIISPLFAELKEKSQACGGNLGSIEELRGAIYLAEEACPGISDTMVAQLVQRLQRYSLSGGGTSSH
Sequence of EPHA7 (chain, as listed by the source): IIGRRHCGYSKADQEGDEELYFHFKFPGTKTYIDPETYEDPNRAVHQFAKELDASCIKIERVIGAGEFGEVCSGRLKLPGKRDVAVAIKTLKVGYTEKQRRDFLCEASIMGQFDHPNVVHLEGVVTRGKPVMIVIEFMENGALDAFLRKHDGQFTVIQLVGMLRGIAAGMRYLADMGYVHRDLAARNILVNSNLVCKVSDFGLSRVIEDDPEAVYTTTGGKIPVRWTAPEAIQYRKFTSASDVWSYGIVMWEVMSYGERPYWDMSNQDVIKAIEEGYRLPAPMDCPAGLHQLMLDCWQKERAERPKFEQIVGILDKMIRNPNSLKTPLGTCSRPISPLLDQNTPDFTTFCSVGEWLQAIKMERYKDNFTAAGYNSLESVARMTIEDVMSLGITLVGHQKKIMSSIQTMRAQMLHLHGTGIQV
Sequence of PIM1 (chain, as listed by the source): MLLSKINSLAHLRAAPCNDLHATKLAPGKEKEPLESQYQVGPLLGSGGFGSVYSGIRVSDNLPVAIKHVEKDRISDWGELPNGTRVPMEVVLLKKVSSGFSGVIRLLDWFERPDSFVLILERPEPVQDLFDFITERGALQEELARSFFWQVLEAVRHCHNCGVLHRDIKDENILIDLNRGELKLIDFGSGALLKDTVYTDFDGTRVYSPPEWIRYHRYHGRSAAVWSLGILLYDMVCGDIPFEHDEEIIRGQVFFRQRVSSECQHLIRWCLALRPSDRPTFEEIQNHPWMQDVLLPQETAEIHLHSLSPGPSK
Sequence of PHKG1 (chain, as listed by the source): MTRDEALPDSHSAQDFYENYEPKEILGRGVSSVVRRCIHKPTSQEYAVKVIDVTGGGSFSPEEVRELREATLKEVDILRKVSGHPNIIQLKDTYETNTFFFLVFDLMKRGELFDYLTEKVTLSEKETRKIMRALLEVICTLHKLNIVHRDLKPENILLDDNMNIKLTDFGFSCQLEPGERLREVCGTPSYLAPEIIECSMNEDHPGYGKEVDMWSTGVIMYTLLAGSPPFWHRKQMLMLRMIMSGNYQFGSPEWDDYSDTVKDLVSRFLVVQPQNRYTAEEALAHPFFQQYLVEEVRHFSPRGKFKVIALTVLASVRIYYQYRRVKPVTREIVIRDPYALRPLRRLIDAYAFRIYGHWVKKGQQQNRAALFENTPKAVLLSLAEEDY
Sequence of BLK (chain, as listed by the source): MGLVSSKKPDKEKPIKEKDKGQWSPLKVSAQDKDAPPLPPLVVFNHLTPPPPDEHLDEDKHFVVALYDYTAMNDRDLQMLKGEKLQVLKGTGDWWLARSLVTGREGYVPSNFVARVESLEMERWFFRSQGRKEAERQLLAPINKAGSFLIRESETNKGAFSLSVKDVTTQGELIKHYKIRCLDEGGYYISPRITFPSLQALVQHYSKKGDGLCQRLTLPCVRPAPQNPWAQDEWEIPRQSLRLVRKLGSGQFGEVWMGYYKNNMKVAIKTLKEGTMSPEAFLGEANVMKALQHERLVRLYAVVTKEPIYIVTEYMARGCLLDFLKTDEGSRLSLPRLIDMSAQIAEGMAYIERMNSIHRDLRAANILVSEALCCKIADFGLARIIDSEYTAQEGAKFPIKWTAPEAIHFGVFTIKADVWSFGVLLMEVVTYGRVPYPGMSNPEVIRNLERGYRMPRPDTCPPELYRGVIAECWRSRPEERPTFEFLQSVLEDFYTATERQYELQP
Sequence of YES1 (chain, as listed by the source): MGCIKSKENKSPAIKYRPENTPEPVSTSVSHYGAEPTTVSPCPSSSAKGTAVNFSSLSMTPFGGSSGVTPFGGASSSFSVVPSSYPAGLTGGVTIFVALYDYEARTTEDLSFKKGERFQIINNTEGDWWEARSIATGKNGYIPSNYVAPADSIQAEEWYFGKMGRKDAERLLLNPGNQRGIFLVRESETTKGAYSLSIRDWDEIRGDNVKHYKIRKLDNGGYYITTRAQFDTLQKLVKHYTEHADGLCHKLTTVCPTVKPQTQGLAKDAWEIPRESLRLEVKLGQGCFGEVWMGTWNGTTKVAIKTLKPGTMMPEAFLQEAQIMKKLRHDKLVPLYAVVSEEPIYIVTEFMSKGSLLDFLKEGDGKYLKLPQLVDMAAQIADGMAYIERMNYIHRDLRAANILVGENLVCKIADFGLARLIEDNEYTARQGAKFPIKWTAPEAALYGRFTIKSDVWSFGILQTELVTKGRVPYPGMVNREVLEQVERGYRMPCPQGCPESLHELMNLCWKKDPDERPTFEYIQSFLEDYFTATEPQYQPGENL
Sequence of NEK7 (chain, as listed by the source): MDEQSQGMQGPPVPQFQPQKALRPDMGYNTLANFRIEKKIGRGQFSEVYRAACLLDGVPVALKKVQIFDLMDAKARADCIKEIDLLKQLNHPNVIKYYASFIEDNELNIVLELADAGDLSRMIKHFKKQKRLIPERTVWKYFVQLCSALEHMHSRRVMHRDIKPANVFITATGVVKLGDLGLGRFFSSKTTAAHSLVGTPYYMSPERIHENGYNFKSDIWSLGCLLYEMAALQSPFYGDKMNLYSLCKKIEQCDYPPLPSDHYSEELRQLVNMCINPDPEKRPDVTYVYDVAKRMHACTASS
Sequence of NTRK3 (chain, as listed by the source): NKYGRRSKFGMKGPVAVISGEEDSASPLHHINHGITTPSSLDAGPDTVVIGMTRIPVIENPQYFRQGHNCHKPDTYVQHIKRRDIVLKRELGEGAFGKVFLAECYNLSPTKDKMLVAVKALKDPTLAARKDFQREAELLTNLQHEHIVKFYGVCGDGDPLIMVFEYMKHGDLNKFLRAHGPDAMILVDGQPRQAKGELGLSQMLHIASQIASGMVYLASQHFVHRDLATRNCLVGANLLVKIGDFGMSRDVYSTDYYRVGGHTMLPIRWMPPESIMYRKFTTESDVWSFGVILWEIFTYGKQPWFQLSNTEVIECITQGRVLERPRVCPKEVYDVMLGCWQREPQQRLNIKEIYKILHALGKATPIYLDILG
Sequence of NTRK2 (chain, as listed by the source): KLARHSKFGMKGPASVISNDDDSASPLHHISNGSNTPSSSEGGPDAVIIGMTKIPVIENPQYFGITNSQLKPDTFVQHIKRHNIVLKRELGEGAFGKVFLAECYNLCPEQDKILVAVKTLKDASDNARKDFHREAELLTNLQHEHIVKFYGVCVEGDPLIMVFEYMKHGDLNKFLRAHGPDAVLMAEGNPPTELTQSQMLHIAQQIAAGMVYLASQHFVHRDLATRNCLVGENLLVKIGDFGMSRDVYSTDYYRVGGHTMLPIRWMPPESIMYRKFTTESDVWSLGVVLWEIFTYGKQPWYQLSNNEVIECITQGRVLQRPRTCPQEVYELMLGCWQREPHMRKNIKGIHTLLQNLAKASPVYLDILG

Question: How did the “MBP Kinase Activity” value turn out when EPHA7 was run?
Answer: Weak

Question: NTRK2 was tested. Which “MBP Kinase Activity” value did it give?
Answer: Strong

Question: Which “MBP Kinase Activity” value does the source give for MLCK here?
Answer: Negative

Question: For PHKG1, which “MBP Kinase Activity” value is on record?
Answer: Negative

Question: For CSNK1G2, which “MBP Kinase Activity” value is on record?
Answer: Negative

Question: How did the “MBP Kinase Activity” value turn out when CLK3 was run?
Answer: Strong

Question: For PRKCG, which “MBP Kinase Activity” value is on record?
Answer: Strong

Question: With BLK as the substance, how does the “MBP Kinase Activity” value read?
Answer: Weak

Question: CSNK1G1(CK1gamma1) was tested. Which “MBP Kinase Activity” value did it give?
Answer: Negative

Question: How did the “MBP Kinase Activity” value turn out when PIM1 was run?
Answer: Strong

Question: For PRKCD, which “MBP Kinase Activity” value is on record?
Answer: Strong

Question: For CDK1/cyclin B, which “MBP Kinase Activity” value is on record?
Answer: Strong

Question: For NEK6, which “MBP Kinase Activity” value is on record?
Answer: Negative

Question: CLK1 was tested. Which “MBP Kinase Activity” value did it give?
Answer: Strong

Question: Which “MBP Kinase Activity” value does the source give for YES1 here?
Answer: Weak

Question: How did the “MBP Kinase Activity” value turn out when STK25(YSK1) was run?
Answer: Strong

Question: For PIM2, which “MBP Kinase Activity” value is on record?
Answer: Weak

Question: How did the “MBP Kinase Activity” value turn out when STK24(MST3) was run?
Answer: Weak

Question: FGR was tested. Which “MBP Kinase Activity” value did it give?
Answer: Weak

Question: For SGK, which “MBP Kinase Activity” value is on record?
Answer: Strong

Question: With NTRK3 as the substance, how does the “MBP Kinase Activity” value read?
Answer: Strong

Question: How did the “MBP Kinase Activity” value turn out when EGFR was run?
Answer: Negative

Question: How did the “MBP Kinase Activity” value turn out when NTRK1 was run?
Answer: Strong

Question: Which “MBP Kinase Activity” value does the source give for NEK7 here?
Answer: Negative

Question: How did the “MBP Kinase Activity” value turn out when AKT1 was run?
Answer: Strong

Question: How did the “MBP Kinase Activity” value turn out when FYN was run?
Answer: Strong

Question: Which “MBP Kinase Activity” value does the source give for MAP4K5(KHS1) here?
Answer: Negative

Question: PRKCB1 was tested. Which “MBP Kinase Activity” value did it give?
Answer: Strong

Question: For MST4, which “MBP Kinase Activity” value is on record?
Answer: Negative

Question: SGKL(SGK3) was tested. Which “MBP Kinase Activity” value did it give?
Answer: Weak

Question: How did the “MBP Kinase Activity” value turn out when CLK4 was run?
Answer: Negative

Question: How did the “MBP Kinase Activity” value turn out when ADRBK2(GRK3) was run?
Answer: Negative

Question: How did the “MBP Kinase Activity” value turn out when PKN1(PRK1) was run?
Answer: Strong

Question: For CSNK1G3, which “MBP Kinase Activity” value is on record?
Answer: Weak

Question: Which “MBP Kinase Activity” value does the source give for WEE1 here?
Answer: Negative
